A short description of the data set: label from the status in PepcDB records.
Take “MVHDSALPFDALPMPPQGREGFEECPYLDSQWVADTNGQRMTGQGVDTRFDTPACVFWSYPEAPQATVMVRHMPSEEEAIRVVDWAAPIDTTEPAEEPDGWSGGRAGHEEGAVYAVQKGPVAVVVWSNQQQSLKAELMAKEAIARLGL”: the protein production result is given as “not failed”.
The same measure for “MKNFLETIEDMILIINREGRLLYANTAVPKKLGYPHEELMSMHILTITSAGKMAEGEKILAELFAGKKESLPLSLEKKEGTSIPAKARIWQGKWHNEPCLFAIIKDLSKEERASSPPFLEPDEIHTGISGAAWCEKPDFASDISCELKDEEPSKPRVLIVDDQLFNLKLLESALKEDYIVMTADNGIEALELATGKSQPDIILLDIIMPVMDGYEVCIRLREMPETRDIPVIFLSALKNEKNEEYALQLGVVDYITKPFSLPIIKGRLRNHVEQKKYRDRQKENSYIDELTQIANRRKFNETVTIEWNRARRNGNSLSVLMIDVDCFKKYNDFYGHLEGDKCLYKIAQTLKSNVKRSSDLVARWGGEEFACVLTDTDRIGAMLVGERLRRAVVKLNIPSEISDVDRVVTASIGVATALPAVDNSLEELLHKADMALYKAKKTGRNCVCTP”: “failed”.
In the case of “MRGFFSNPWIRWALSLAFLGVILFFLRDQLDFLKMGIQQIRHVSPVGVALTMVALVLSFVAMARVMQIMLKAGGSPATLKATTALTFAANSWSATLPGGPAFSAILTYKVQRSWGASAVLCSWFFLLSSALSTVWLVALGVIAVFYMGASLNLWSLIATFIAMVGLSGAVYWAANNPDSLARWVRKLTKNREWGFVEKLLGSIEQLRSVSLTGPQFAASTAWSLGNRLFDAISLWICIWAVTGTAPMFEPEPNNTTIAGVLLAYTTAKIAGSIQATPGGIGPIEAAYIAALVATGMTAVEAAGAVIIYRLCSFIIMAIVGWVIYFIYFTPQGLKANESLDVEQDTINSDSNRQSAIERPDT”, the protein production result is “failed”.
The same measure for “MNDTLLNAYSGIKTHQFGIDSLSNNIANVNTLGYRSNDPEFKTLFSSHLDALNAKSVVANDRNYGVTGSGNVLSNKDGEYMPSEGEFHMAYQGKGWFVIGPNKNGEITINKDGFSKKQDNFLTRAGNFARDADGYLVTPEGYYVYGIDLKKIKDGTLNSTARDEDIEKLHGNTLSPLQIPQDLTYQPVLSTKVNISVNLNPKDHLKGVQDFFLNDKGEIIKERFLNQDINALANNDNEPIDAITNRKLNISIQKEDGKKEDFVFTYGDAEKGENQFKTLGDLQKLLKEKTGLDLNLIKSEKDAKSPPLLLEIANPSQTPITFSLSGGIADKLGLKADGMELKKGISRDSVAIKIPYYSTEVDIYDKAGDKYLLQSEYYMTNSNDPTSSPTSKRKNQTWEVKSYIADPKNKTPINDPTWEIVGFDSATHKMKSAPMTLDFKGNKLTYSLDKSENHDSSDLSYQDSKLLEASQDGKPRGIFRDMRIEENGVISLAFSNGVVEPVARIGILAFTNDQGLRKIGGNLYEMQEGTINGENRPLSGNPILGWDEEGKLKFGKIRHKYLETSNVNAGNALTNLILMQRGYSMNARAFGAGDDMIKEAISLKK”: “failed”; for “MEALVRCLRSGQFLLIIDNLESVLQPDRQWGSLFYGDFFQAWIESGGNSKVLVTTRERPELKGFEWLTLKGLQVDEGVALLTALGIKGNLGEFVELVDGHPLLLRLVADLLKEEYPQDPDLSRLADLGLGNLQQLLTDSQVVGVHRRENVGMVLVLDASFHRLSELQKALLLNISVYRGAVDSAAAVAMLPGNSAAEIEKELRNIVKRSLLVEKLNGKRRFEFQPVVLEYVRYKAGDQSEAHQRAIDYYRSVAKQPPWTTKDDVREYLEIFDHFYQLQDYDSAFDNIRVCSKFLGLCGFFVDKVELYGQLISKWKEIGERENWNYGASLTALGNAYRYLGEYQRAIELFQQSLEIFRDIGDRNGVSNSLIGLGNTYNSVGEYQRAIELFQQSLEISRDIGDRNGVGGSLMGLGNAYNSVGEYQRAIELFQQSLEISRDIGDRNGVGNSLIGLGNAYHSLGEYQRAIEFRQQSLEIFRDMGDRNGVSISLNNLGNTYYFLGEYQRAIEFHQQSLEISRDIGDCNGVGRSLNNLGNAYYSLGKYQQAIEFHQQSLEIKRDIGDRNGVGTSLNNLGTAYSSLGKYQRAIELFQQSLEIKRDIGDRNGVGTSLMNLSNAYYRCGKIREAFAVWHQAESIFQELQLPFEAMPYPQWLKSLIKFAQRGWFQFILCFIFGLIAFPFALVWLILLFLWPSISSQFRR”: “failed”; for “MGLKSNSAILPKALFCWSGGKDSAYCLHKVLLEKQFDVCYLLTTVNDTFKRISMHGVRETLLDKQTESIGIPCIKIRIKEGTNSEYEQLMETTLLKAKEEGITHVIFGDIFLEDLRTYRENNLDKVGLQAVFPLWKMDTGILIRDFIRKKFKTILCCINDGYLDETWAGREIDAVFIAQLPGHVDPCGENGEYHTFCYDGPLFQKAITVSTGEKIYKPLDYSLDDVCQSTVPTKGFWYCDLIPD”: “failed”.
For “MLEGVARPSLLRRLSCAPGMPAPVRRLAERIEGSHLATRLAEGAFWSFAGSALSRAFALAASVVTARFLGKAQYGELGVLLSTLLTFQAFASLGLGMTATKYVSELRTKDPERAGRILGMSAVLSAATGVLAAALLWAFAPWLASSTIGAPHLTEPLRIAGLGLVFTTMGGAQTGALAGFEAFRTQTQLNVWLGLLGVPIAVVGVWRWGLQGAVWATVVTAALQWALTHVAVRVHARRDRVPVSPRGWWREQRILWTFSLPALAQGVMVGPVSWAAAAILVNQPGGYPEMGAFSAANQWYAAVLFLPNALCGPVLPVLSERVGRGDGPGVRAVLRAAVAMNAAAVIPIVAAGCLASPWLVRIYGPQFADAWPTFAVVLITAGIVAITNPVGYVLAASERLWLGFLMNSGWAAAFLVATVLLVGWGSLGLATGRLLAYALHFGWTLWFAMRFVRAGAARGT”, the protein production entry was “failed”.
For “KKVCVDTCVVIDGRITELIERGKLKDATIIIPEAVVSELEYQANMGREIGYKGIEELRKLIEKASEHNIKVEYYGERPTREEIFLAKSGEIDAMIRKVAKETNSILLTSDWIQYNLAKAQGIEAYFLEAAEEEVELVLD”, the protein production entry was “not failed”.
As to “MNKALKALGVLTTFVMLIVLIGGALVTKTGSGQGCGRQWPLCHGRFFPELNPASIIEWSHRFASGISIILVLSLAFWSWRKITPIFRETTFLAIMSIIFLFLQALLGALAVVFGSNALIMALHFGISLISFASVLILTLLIFEADKSVRTLVKPLQIGKKMQFHMIGILIYSYIVVYTGAYVRHTESSLACPNVPLCSPLNNGLPTQFHEWVQMGHRAAALLLFVWIIVAAVHAITSYKDQKQIFWGWISCLIFITLQALSGIMIVYSELALGFALAHSFFIACLFGVLCYFLLLIARFRYESRQS”, the protein production result is “failed”.
The same measure for “MSSSREENVYLAKLAEQAERYEEMVEFMEKVAKTVDTDELTVEERNLLSVAYKNVIGARRASWRIISSIEQKEESRGNDDHVSIIKDYRGKIETELSKICDGILNLLDSHLVPTASLAESKVFYLKMKGDYHRYLAEFKTGAERKEAAESTLVAYKSAQDIALADLAPTHPIRLGLALNFSVFYYEILNSPDRACSLAKQAFDEAISELDTLGEESYKDSTLIMQLLRDNLTLWNSDINDEAGGDEIKEASKHEPEEGKPAETGQ”: “failed”; for “MSDEWIKIFESDFYVREMIKVWDEGEKWANWIDEVVSKYKLEKKVLDIPCGIGRVSYFLANRGYKVTGIDISERMISMARSNIQNGKFIVGDMRKIKEIIGNEKYDLVINIYNSLGYYSEEDDLKILESLRDSTRKIVVINLDNRDYIIYNRPNEYYTYIPPYLVYSKVEFEQETSRLKIYRKYYLNDKEVGEMIYEQRLYSIHEILALLKKAGLQPIEVLSGYSWKKFSIMDPEMTIIATPA”: “failed”; for “MSSGNVFLLSIASSAGMNIRLVHRLIAASCAVVLCSTVGIPAGRAGDPFRSSNPQPISASTAAAFTAAFQQGNYPAAEQALQQALRQDSSDPLVFALAGSLAFAQQNRQAFADYARQTKSKAQAIAPQQPLRSQLYIAVGELMMAASTLLPQLTGDGGVPLAAVPQALQSLQTVYGSLRAAAQINPNDPELNLVQGFVDLIVATNLPLANPSGAIAKLEKASPRYLADRGIALGLRNLKRYPEAIQYVDRAIAAAPENPELRYLKAQILVEQSKATGDANLRRAAAAEFQKALAKSSQLPQPLVWQLFFEACNNQKTFDNRGQDCVSLRDQVTQAPGPWGPATLPPL”: “failed”.
Turning to “MKIEEVRFGLVKIDGKEFDHDIVIYPSGRIERRMKEISKKKHGTSHKLDPEELEKYLVEDFDVLLVGTGIYGMLSLLPESKKLVEDKEVIEKPTKEALKLLEELWGKKRILAIIHVTC”, the protein production entry was “not failed”.
The same measure for “LIKRMNAEELLHEKIEFNDLLLRSVENPIFWRDSRGFLIDCNAQFTRLLGISKDRLVGRSVYDICGDLHTPVLEGLLTKVLQGEGEQYDIDFKNHEGETLSFLVQASEYHDKSEKVAGVVTILFDMT”: “failed”.
Consider “MGMVFGKIAVETPKYTVTKSGDGYEIREYPPAVAAEVTYDASEFKGDKDGGFQLLAKYIGVFGKPENEKPEKIAMTAPVITKEGEKIAMTAPVITKESEKIEMTSPVVTKEGGGEGRKKLVTMQFLLPSMYKKAEEAPRPTDERVVIKEEGGRKYGVIKFSGIASESVVSEKVKKLSSHLEKDGFKITGDFVLARYNPPWTLPPFRTNEVMIPVE”, for which the protein production entry is “failed”.
With “MLNNFLNLELLNISLSYPFLFLITTAIVLLLCSGFWKFHRSFYIGISSLSLIVSAFLILNNANAQGLEAKAFLATLNNDIVSFYASLVILCFSFLYLLMQKEENQGEFYALFLFMIASLLLMVSSSNLVLIFIGLESSSLALYTLIAMRGSDNAISSAIKYFSIAAVGAGFFVMAVAFIYLKTGTLDLSANLALKNEFQKDPMLLGAGVMIFVLCAIKLSLAPFHFWLKDVYYAAHTNLVAFISVVPKVAMLVVVIRLFDFLNNTGFEYIIIVLAIFSMLIGAFAALSQNNIKKMFAYSSVVHSSLVLIACIPLLKEQNFDGILLAIFGYWTLFAFANYAVFMILSNYENNSYESLNGLLVKKPLIAFCLSISVLSLAGIPPFGVFWGKFMILNTVILNGYWYLALFVALSSVIMLYAYLKILIHVLFMKNDRVYNIKFSFIQNFILAFCVCVSIFAILLML”, the protein production entry is “failed”.
The same measure for “MPKVLNVVFFFSPLIISAVITYFTWVKIETILIDFGLWLAMVTAFYIFLNFYLLLRRSKRYNIEVADEMTGFKIAAFVTSFNEDPEIVERTLLSVKDAVSNQGDVFLLDDSTDENISRRLREFCTRNDINYVHRKDRRGYKAGAINDALRRIQGYDLVAIFDADQRPVRDFFKQVLPYFKDPKIAFVQVPQNYSETFSGISTGAKYQQEPFLRIIMRGRSGRSAFSLGSGTVFRIQALREVGYLPENSITEDAAVSIKLHSKGYNSVYIDVPLIWYGEPPQDLNAYLIQQSRWALGYFQLTKDIIKADLSFLKYYDYFSGFLYWIKEGPLAIVEFISPIVFLLTEIPILRINPILYLLVYLPYLFISIGIFVAGIREETEYGLKGFFYHQCVEFLEFTAVTASFISWLLGRKRPFRVTPKGGGRLNLRILLPHIVILLLLIVSTVKGILWLISANSNFLLYYAIIVNVFWAIYHIPFFLGGILISARFKTRENLTKVVYY”: “failed”; for “ANTSGKDGTTVVIGESKSDHVIHLYEDPRCPGCAAMEQSIGETVNKGMEDGDYKLSFTVGTFLDGNLGGEGSKNALSALGAALNVSPEAFVDYKTALYSTKYHPEESTDEFAKDDYLIKVADSVDALKGNKKFQDAVEKGTYDAWAMRMSKSFDKAEGVESTPTIKINDKVVETPSTPDAWQKALKDAGVTK”: “failed”.
“DREREQHKREEAIQNFKALLSDMVRSSDVSWSDTRRTLRKDHRWESGSLLEREEKEKLFNEHIEALTKKKRE”: the protein production entry is recorded as “not failed”.

The record behind these values is a protein production outcome set (Wang et al. 2014).
